Results: patent publication US20200016315A1 (SYDDANSK UNIVERSITET, published 2020)
Substitutions are numbered along the chain they refer to. Names and notes keep the numbering of the source.

B1: IsdH N1N2N3 (residues 82-655), wild type (receptor)
chain: NYPAADESLKDAIKDPALENKEHDIGPREQVNFQLLDKNNETQYYHFFSIKDPADVYYTKKKAEVELDINTASTWKKFEVYENNQKLPVRLVSYSPVPEDHAYIRFPVSDGTQELKIVSSTQIDDGEETNYDYTKLVFAKPIYNDPSLVKSDTNDAVVTNDQSSSVASNQTNTNTSNQNISTINNANNQPQATTNMSQPAQPKSSTNADQASSQPAHETNSNGNTNDKTNESSNQSDVNQQYPPADESLQDAIKNPAIIDKEHTADNWRPIDFQMKNDKGERQFYHYASTVEPATVIFTKTGPIIELGLKTASTWKKFEVYEGDKKLPVELVSYDSDKDYAYIRFPVSNGTREVKIVSSIEYGENIHEDYDYTLMVFAQPITNNPDDYVDEETYNLQKLLAPYHKAKTLERQVYELEKLQEKLPEKYKAEYKKKLDQTRVELADQVKSAVTEFENVTPTNDQLTDLQEAHFVVFESEENSESVMDGFVEHPFYTATLNGQKYVVMKTKDDSYWKDLIVEGKRVTTVSKDPKNNSRTLIFPYIPDKAVYNAIVKVVVANIGYEGQYHVRIINQDI
modifications: coupled through primary amines to CNBr-activated Sepharose
notes: In the assay the protein was immobilized on Sepharose; also called IsdH N1N2N3 wt; N1N2N3-Seph; not shown: vector-encoded His6 tag of pET-15b
B2: IsdH N1N2N3 Y642A (receptor)
chain: B1 chain with Y561A
modifications: coupled through primary amines to CNBr-activated Sepharose
notes: also called N1N2N3-Y642A-Seph; Y642A mutant; not shown: vector-encoded His6 tag of pET-15b
B3: IsdH^N1 (residues 86-229) with N-terminal His6 tag and thrombin cleavage site (receptor)
chain: DIGPREQVNFQLLDKNNETQYYHFFSIKDPADVYYTKKKAEVELDINTASTWKKFEVYENNQKLPVRLVSYSPVPEDHAYIRFPVSDGTQELKIVSSTQIDDGEETNYDYTKLVFAKPIYNDPSL
modifications: coupled through primary amines to CNBr-activated Sepharose
notes: also called N1 Seph; not shown: added N-terminal His6 tag and thrombin cleavage site

What follows are binders tested against T1, hemoglobin (human, UniProt P69905 2-142; P68871 2-147) (assay: plasma with 3 g/l added hemoglobin mixed with equal volume of protein-Sepharose, supernatant on Cobas 6000; not corrected for dilution; no Sepharose 80, sham Sepharose 25).
T1 construct: also called Hb; human Hb
For B1, the “H-index of supernatant (hemoglobin left after removal)” value (shortened to “H-index of supernatant”) was 12 mg/dL. In the case of B2, the “H-index of supernatant” value is reported as 8 mg/dL. In the case of B3, the “H-index of supernatant” value is reported as 29 mg/dL.

These binders were tested against T1, hemoglobin (assay: raw plasma without added hemoglobin mixed with equal volume of protein-Sepharose, supernatant on Cobas 6000; not corrected for dilution; no Sepharose 7, sham Sepharose 0).
In the case of B1, the “H-index of supernatant” value is reported as 0 mg/dL. B2 was tested, and the “H-index of supernatant” value was 0 mg/dL. B3 was tested, and the “H-index of supernatant” value was 0 mg/dL.
